Series [1] has as its target T1, human Amyloid beta 1-42 peptide (Homo sapiens, UniProt P05067).
T1 construct: biotinylated human Amyloid beta 1-42 peptide (rpeptide, USA; cat: A1117); purchased rPeptide, USA A1117; host or cells: synthetic peptide
In words: Surface Plasmon Resonance kinetic profiling of purified scFv (ProteOn). The class given is binding. As to conditions: biotinylated human Amyloid beta 1-42 on streptavidin chip.

In series [2] the target is T2, Amyloid beta 1-42 peptide (Rattus norvegicus, UniProt P08592).
T2 construct: Measurement of free Amyloid beta 1-42 peptide in rat CSF; from tissue; host or cells: CSF and brain homogenate of Sprague-Dawley rats
In words: Free Amyloid beta 1-42 peptide in rat CSF (immunoprecipitation + ELISA). In kind it is in vivo. As to conditions: normal rats, 10 mg/kg i.v. weekly for 2 weeks; not significant. How it is done:
(§1) Eight-week old male albino Harlan Sprague-Dawley rats (n=8-12) received a single dose of Abet0380-GL IgG1-TM antibody by intravenous injection with a dosing vehicle of 25 mM Histidine, 7% Sucrose, 0.02% p80 surfactant, pH 6.0 at 5 ml/kg. Dosing solutions were made just before dosing. Animals were anaesthetized at the time indicated and cerebrospinal fluid (CSF) was aspirated from the cistema magna. CSF samples were centrifuged for 10 minutes at approximately 3000× g at 4° C. within 20 minutes of sampling to remove cells or debris. Samples were then frozen on dry ice and stored at −70° C. for subsequent analysis.
Measurement of free Amyloid beta 1-42 peptide in rat CSF was conducted using immunoprecipitation to remove Abet0380-GL bound Amyloid beta 1-42 peptide, followed by analysis by a commercial ELISA kit obtained from Invitrogen. Briefly, a solution of protein A beads (Dynabeads® Protein A; Invitrogen, UK; cat: 100-02D) was added to a 96 well non-skirted plate (polypropylene 0.2 ml; VWR International, UK; cat: 10732-4828) and washed twice with TBST (50 mM TBS; Sigma, UK; cat: T6664 plus 0.1% Tween20) using a magnet (DynaMag™ 96 side; Invitrogen, UK; cat: 123.31 D) to separate the beads from the solution. Thawed rat CSF samples (40 μl) were added to each well and incubated at […] with tilt rotation for 1 hour. The beads were then pelleted using the magnet and 30 μl of immunoprecipitated CSF samples were transferred to a 96 well plate from the ELISA kit (mouse Amyloid beta (1-42) colorimetric ELISA kit; Invitrogen, UK; cat: KMB3441) with 70 μl of the Standard Diluent Buffer already added (supplemented with protease inhibitor; Roche, UK; cat: 11836153001). Calibration standard samples were added to the plate in duplicate and the plate was incubated for 2 hours at room temperature with shaking. The plate was washed 4 times with 400 µl of wash buffer, 100 μl of the detection antibody solution was added to each well and the plate was incubated for 1 hour at room temperature with shaking. Again, the plate was washed 4 times with 400 μl of wash buffer, 100 μl of the secondary antibody working solution was added to each well and the plate was incubated for 30 minutes at room temperature with shaking. Finally, the plate was washed 4 times with 400 μl of wash buffer, 100 μl of stabilized Chromogen was added to each well and the plate was incubated for 30 minutes at room temperature in the dark. To stop the reaction, 100 μl of Stop Solution was added to each well and the plate was read within 2 hours at an absorbance of 450 nm. Single CSF samples were analyzed and data analysis was performed using Prism 4 (GraphPad, USA) with one-way ANOVA on log transformed data without adjustment for multiple comparisons.
To further investigate the effect of the Abet0380-GL IgG1-TM antibody in vivo, rats were administered weekly doses of 0.25, 0.5, 1, 5 or 10 mg/kg over 14 days. Animals were euthanized 168 hours after the second dose to measure levels of free Amyloid beta 1-42 peptide in CSF as well as total Amyloid beta 1-42 or 1-40 peptides in brain tissue.
The ability of antibody Abet0144-GL to sequester amyloid beta 1-42 was investigated in a PK-PD study in normal rats. Rats were intravenously administered Abet0144-GL (10 or 40 mg/kg) or vehicle weekly for 2 weeks (on days 0 and 7), and sacrificed a week after the 2nd dose. […] Free and total amyloid beta 1-42 levels were measured using assays described above.
Background: In an ELISA, binding on a coated surface is turned into a signal by an enzyme label.

Series [3] addresses T2, Amyloid beta 1-42 peptide. In words: Total Amyloid beta 1-42 peptide in rat brain homogenates (ELISA). As to conditions: normal rats. In kind it is in vivo. On the procedure: as §1
Animals were sacrificed by decapitation, brain tissue was dissected and Amyloid beta peptides were extracted from brain tissue in diethylamine (DEA; Fluka. Sigma. UK; cat: 31729). Briefly, frozen brain tissue was homogenized in 0.2% DEA and 50 mM NaCl (Merck, USA: cat: 1.06404.1000). Brain homogenates were ultracentrifuged at 133,000×g, for 1 hour. Recovered supernatants were neutralized to pH 8.0 with 2 M Tris-HCl (TRIZMA®-hydrochloride; Sigma, UK; cat: 93363) and stored at −70° C. until analysis. Animal experimentations were performed in accordance with relevant guidelines and regulations provided by the Swedish Board of Agriculture. The ethical permission was provided by an ethical board specialized in animal experimentations: the Stockholm Södra Animal Research Ethical Board.
Measurement of total (free and Abet0380-GL bound) Amyloid beta 1-42 peptide in rat brain homogenates was performed using modifications of the mouse Amyloid beta (1-42) colorimetric ELISA kit (Invitrogen, UK: cat: KMB3441). […] To stop the reaction, 100 μl of Stop Solution was added to each well and the plate was read within 2 hours at an absorbance of 450 nm. […]
The ability of antibody Abet0144-GL to sequester amyloid beta 1-42 was investigated in a PK-PD study in normal rats. […] Free and total amyloid beta 1-42 levels were measured using assays described above.

Another series concerns the target T3, amyloid beta 1-42 (Rattus norvegicus, UniProt P08592).
T3 construct: Measurement of free Amyloid beta 1-42 peptide in rat CSF; from tissue; host or cells: CSF and brain homogenate of Sprague-Dawley rats
In words: Total amyloid beta 1-42 in rat CSF (PK-PD study in normal rats). The class given is in vivo. How it is done:
The ability of antibody Abet0144-GL to sequester amyloid beta 1-42 was investigated in a PK-PD study in normal rats. Rats were intravenously administered Abet0144-GL (10 or 40 mg/kg) or vehicle weekly for 2 weeks (on days 0 and 7), and sacrificed a week after the 2nd dose. CSF was sampled for free and total amyloid beta 1-42, and brain was sampled for total amyloid beta 1-42 measurement. Free and total amyloid beta 1-42 levels were measured using assays described above.

Setting [4] is: 10 mg/kg i.v. weekly for 2 weeks.
The mark [5] stands for this setting: 40 mg/kg i.v. weekly for 2 weeks.

Data on 1 molecule can be found in patent US20190262327A1, “COMBINATION OF A BACE INHIBITOR AND AN ANTIBODY OR ANTIGEN-BINDING FRAGMENT FOR THE TREATMENT OF A DISORDER ASSOCIATED WITH THE ACCUMULATION OF AMYLOID BETA” (ASTRAZENECA AB, priority 2016, published 2019).

T2 sequence (P08592 672-713 limits assumed): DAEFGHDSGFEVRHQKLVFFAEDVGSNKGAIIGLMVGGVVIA
T3 sequence (P08592 672-713 limits assumed): as above
T1 sequence (P05067 672-713): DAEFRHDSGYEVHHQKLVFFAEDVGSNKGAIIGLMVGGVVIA

B1: Abet0144-GL: parent anti-Aβ antibody clone, germlined; VH domain SEQ ID NO: 20 and VL domain SEQ ID NO: 29 (antibody, listed as Homo sapiens, V domains shown)
VH: EVQLLESGGGLVQPGGSLRLSCAASGFTFSVYTMWWVRQAPGKGLEWVSVIGSSGGTTVYADSVKGRFTISRDNSKNTLYLQMNSLRAEDTAVYYCAREWMDHSRPYYYYGMDVWGQGTLVTVSS
VL: SYELTQPPSVSVSPGQTASITCSGHNLEDKFASWYQQKPGQSPVLVIYRDDKRPSGIPERFSASNSGHTATLTISGTQAMDEADYYCQAQDSTTRVFGGGTKLTVL
modifications: /note=“Abet0144-GL”
For B1, in series [1], the “ka” value turned out to be 116000 M⁻¹ s⁻¹. Also, the “kd” value in series [1] was 0.0066 s⁻¹. Also, the “increase of free amyloid beta 1-42 in CSF compared with vehicle” value in series [2] came to 5%. For the same molecule, the “increase of total amyloid beta 1-42 in brain tissue” value stood at 16% in series [3] (setting [4]) and 50% in series [3] (setting [5]). In addition, the “increase of total amyloid beta 1-42 in CSF” value amounted to 38% in the series with amyloid beta 1-42 (setting [4]) and 139% in the series with amyloid beta 1-42 (setting [5]).
